# Tests used:
# [1] = molecular target: dogCLDN18 (Canis lupus familiaris); experiment: flow cytometry; HEK293T dogCLDN18 moxGFP mass pop, 10ug; control HEK293T parental 10ug 12,759.00
# [2] = molecular target: Claudin-18.1 (CLDN18.1) (human) (UniProt P56856); experiment: flow cytometry; HEK293T human CLDN18.1 mGFP 2B14, 10ug; control HEK293T parental 10ug 12,759.00
# [3] = molecular target: Claudin-18.1 (CLDN18.1) (human) (UniProt P56856); experiment: flow cytometry; HEK293T human CLDN18.1 mGFP 2B14, 1ug; control HEK293T parental 1ug 5,328.00
# [4] = molecular target: dogCLDN18 (Canis lupus familiaris); experiment: flow cytometry; HEK293T dogCLDN18 moxGFP mass pop, 1ug; control HEK293T parental 1ug 5,328.00
# rat CLDN18 (rat) [5] = molecular target: rat CLDN18 (rat) (UniProt Q5I0E5); experiment: flow cytometry; HEK293T rat CLDN18 moxGFP Clone5, 0.1ug; control HEK293T parental 0.1ug 3,276.00
# Sequence of rat CLDN18 (rat) (Q5I0E5 whole entry): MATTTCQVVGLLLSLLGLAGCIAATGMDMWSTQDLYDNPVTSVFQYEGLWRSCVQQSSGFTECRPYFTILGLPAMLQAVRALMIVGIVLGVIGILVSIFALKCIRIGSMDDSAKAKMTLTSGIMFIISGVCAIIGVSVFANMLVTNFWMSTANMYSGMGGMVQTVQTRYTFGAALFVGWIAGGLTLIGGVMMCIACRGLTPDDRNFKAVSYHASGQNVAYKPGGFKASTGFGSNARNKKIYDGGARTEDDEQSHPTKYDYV
# [6] = molecular target: dogCLDN18 (Canis lupus familiaris); experiment: flow cytometry; HEK293T dogCLDN18 moxGFP mass pop, 0.1ug; control HEK293T parental 0.1ug 3,276.00
# rat CLDN18 (rat) [7] = molecular target: rat CLDN18 (rat) (UniProt Q5I0E5); experiment: flow cytometry; HEK293T rat CLDN18 moxGFP Clone5, 10ug; control HEK293T parental 10ug 12,759.00
# [8] = molecular target: Claudin-18.1 (CLDN18.1) (human) (UniProt P56856); experiment: flow cytometry; HEK293T human CLDN18.1 mGFP 2B14, 0.1ug; control HEK293T parental 0.1ug 3,276.00
# rat CLDN18 (rat) [9] = molecular target: rat CLDN18 (rat) (UniProt Q5I0E5); experiment: flow cytometry; HEK293T rat CLDN18 moxGFP Clone5, 1ug; control HEK293T parental 1ug 5,328.00
# rat CLDN18 (rat) [10] = molecular target: rat CLDN18 (rat) (UniProt Q5I0E5); experiment: flow cytometry; HEK293T rat CLDN18 moxGFP Clone5, 1ug; control HEK293T parental 1ug 8,287.00
# [11] = molecular target: Claudin-18.1 (CLDN18.1) (human) (UniProt P56856); experiment: flow cytometry; HEK293T human CLDN18.1 mGFP 2B14, 0.1ug; control HEK293T parental 0.1ug 3,589.50
# rat CLDN18 (rat) [12] = molecular target: rat CLDN18 (rat) (UniProt Q5I0E5); experiment: flow cytometry; HEK293T rat CLDN18 moxGFP Clone5, 10ug; control HEK293T parental 10ug 29,683.50
# [13] = molecular target: dogCLDN18 (Canis lupus familiaris); experiment: flow cytometry; HEK293T dogCLDN18 moxGFP mass pop, 10ug; control HEK293T parental 10ug 29,683.50
# [14] = molecular target: Claudin-18.1 (CLDN18.1) (human) (UniProt P56856); experiment: flow cytometry; HEK293T human CLDN18.1 mGFP 2B14, 10ug; control HEK293T parental 10ug 29,683.50
# [15] = molecular target: dogCLDN18 (Canis lupus familiaris); experiment: flow cytometry; HEK293T dogCLDN18 moxGFP mass pop, 0.1ug; control HEK293T parental 0.1ug 3,589.50
# [16] = molecular target: dogCLDN18 (Canis lupus familiaris); experiment: flow cytometry; HEK293T dogCLDN18 moxGFP mass pop, 1ug; control HEK293T parental 1ug 8,287.00
# [17] = molecular target: Claudin-18.1 (CLDN18.1) (human) (UniProt P56856); experiment: flow cytometry; HEK293T human CLDN18.1 mGFP 2B14, 1ug; control HEK293T parental 1ug 8,287.00
# rat CLDN18 (rat) [18] = molecular target: rat CLDN18 (rat) (UniProt Q5I0E5); experiment: flow cytometry; HEK293T rat CLDN18 moxGFP Clone5, 0.1ug; control HEK293T parental 0.1ug 3,589.50
# [19] = molecular target: Claudin-18.1 (CLDN18.1) (human) (UniProt P56856); experiment: flow cytometry; HEK293T human CLDN18.1 mGFP 2B14, 0.1ug; control HEK293T parental 0.1ug 2,726.00
# [20] = molecular target: dogCLDN18 (Canis lupus familiaris); experiment: flow cytometry; HEK293T dogCLDN18 moxGFP mass pop, 0.1ug; control HEK293T parental 0.1ug 2,726.00
# rat CLDN18 (rat) [21] = molecular target: rat CLDN18 (rat) (UniProt Q5I0E5); experiment: flow cytometry; HEK293T rat CLDN18 moxGFP Clone5, 1ug; control HEK293T parental 1ug 9,051.00
# [22] = molecular target: Claudin-18.1 (CLDN18.1) (human) (UniProt P56856); experiment: flow cytometry; HEK293T human CLDN18.1 mGFP 2B14, 1ug; control HEK293T parental 1ug 9,051.00
# rat CLDN18 (rat) [23] = molecular target: rat CLDN18 (rat) (UniProt Q5I0E5); experiment: flow cytometry; HEK293T rat CLDN18 moxGFP Clone5, 0.1ug; control HEK293T parental 0.1ug 2,726.00
# rat CLDN18 (rat) [24] = molecular target: rat CLDN18 (rat) (UniProt Q5I0E5); experiment: flow cytometry; HEK293T rat CLDN18 moxGFP Clone5, 10ug; control HEK293T parental 10ug 22,390.50
# [25] = molecular target: dogCLDN18 (Canis lupus familiaris); experiment: flow cytometry; HEK293T dogCLDN18 moxGFP mass pop, 10ug; control HEK293T parental 10ug 22,390.50
# [26] = molecular target: dogCLDN18 (Canis lupus familiaris); experiment: flow cytometry; HEK293T dogCLDN18 moxGFP mass pop, 1ug; control HEK293T parental 1ug 9,051.00
# [27] = molecular target: Claudin-18.1 (CLDN18.1) (human) (UniProt P56856); experiment: flow cytometry; HEK293T human CLDN18.1 mGFP 2B14, 10ug; control HEK293T parental 10ug 22,390.50
# [28] = molecular target: dogCLDN18 (Canis lupus familiaris); experiment: flow cytometry; HEK293T dogCLDN18 moxGFP mass pop, 10ug; control HEK293T parental 10ug 16,812.50
# [29] = molecular target: Claudin-18.1 (CLDN18.1) (human) (UniProt P56856); experiment: flow cytometry; HEK293T human CLDN18.1 mGFP 2B14, 0.1ug; control HEK293T parental 0.1ug 3,268.00
# rat CLDN18 (rat) [30] = molecular target: rat CLDN18 (rat) (UniProt Q5I0E5); experiment: flow cytometry; HEK293T rat CLDN18 moxGFP Clone5, 0.1ug; control HEK293T parental 0.1ug 3,268.00
# [31] = molecular target: Claudin-18.1 (CLDN18.1) (human) (UniProt P56856); experiment: flow cytometry; HEK293T human CLDN18.1 mGFP 2B14, 10ug; control HEK293T parental 10ug 16,812.50
# rat CLDN18 (rat) [32] = molecular target: rat CLDN18 (rat) (UniProt Q5I0E5); experiment: flow cytometry; HEK293T rat CLDN18 moxGFP Clone5, 10ug; control HEK293T parental 10ug 16,812.50
# rat CLDN18 (rat) [33] = molecular target: rat CLDN18 (rat) (UniProt Q5I0E5); experiment: flow cytometry; HEK293T rat CLDN18 moxGFP Clone5, 1ug; control HEK293T parental 1ug 4,198.00
# [34] = molecular target: Claudin-18.1 (CLDN18.1) (human) (UniProt P56856); experiment: flow cytometry; HEK293T human CLDN18.1 mGFP 2B14, 1ug; control HEK293T parental 1ug 4,198.00
# [35] = molecular target: dogCLDN18 (Canis lupus familiaris); experiment: flow cytometry; HEK293T dogCLDN18 moxGFP mass pop, 0.1ug; control HEK293T parental 0.1ug 3,268.00
# [36] = molecular target: dogCLDN18 (Canis lupus familiaris); experiment: flow cytometry; HEK293T dogCLDN18 moxGFP mass pop, 1ug; control HEK293T parental 1ug 4,198.00
# Sequence of Claudin-18.1 (CLDN18.1) (human) (P56856 whole entry): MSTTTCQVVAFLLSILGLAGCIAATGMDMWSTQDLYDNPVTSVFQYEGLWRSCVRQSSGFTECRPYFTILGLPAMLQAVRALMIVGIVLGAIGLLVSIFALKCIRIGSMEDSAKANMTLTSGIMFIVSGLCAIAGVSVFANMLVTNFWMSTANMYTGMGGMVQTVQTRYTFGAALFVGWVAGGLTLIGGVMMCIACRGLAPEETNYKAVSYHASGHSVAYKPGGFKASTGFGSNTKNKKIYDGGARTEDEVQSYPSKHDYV
binder,measurement,setting,value
"HuAb307-3 (antibody, V domains shown) VH: EVQLLESGGGLVQPGGSLRLSCAASGFTFSSYTMSWVRQAPGKGLEWVATIIIGGSYTYYADSVKGRFTISRDNSKNTLYLQMNSLRAEDTAVYYCTRLVKGNAMDYWGQGTLVTVSS VL: DIVMTQSPDSLAVSLGERVTMNCKSSQSLLNSGNQKNYLSWYQQKPGQPPKLLFYWASTRESGVPDRFSGSGSGTDFTLTISSVQAEDVAVYYCQNDYSYPFTFGQGTKLEIK",flow cytometry signal,[1],10200
same,flow cytometry signal,[2],76900
same,flow cytometry signal,[3],54100
same,flow cytometry signal,[4],6030
same,flow cytometry signal,rat CLDN18 (rat) [5],3810
same,flow cytometry signal,[6],3860
same,flow cytometry signal,rat CLDN18 (rat) [7],13800
same,flow cytometry signal,[8],52100
same,flow cytometry signal,rat CLDN18 (rat) [9],7320
"02-0358-h5 (antibody, V domains shown) VH: EVQLVESGGGLVQPGGSLRLSCAVSGFTFSSFGMHWVRQAPGKGLEWVAYISSGTTNIYYADSVKGRFTVSRDNAKNSLYLQMNSLRAEDTAVYYCVRSGYYGNSLDYWGQGTLVTVSS VL: DIVMTQSPDSLAVSLGERVTMNCKSSQSLFSSGNQRNYLTWYQQKPGQPPKLLIYWASTRESGVPDRFSGSGSGTDFTLTISSVQAEDVAVYYCQNVYIYPLTFGQGTKLEIK",flow cytometry signal,rat CLDN18 (rat) [10],12400
same,flow cytometry signal,[11],52700
same,flow cytometry signal,rat CLDN18 (rat) [12],31200
same,flow cytometry signal,[13],20600
same,flow cytometry signal,[14],140000
same,flow cytometry signal,[15],4700
same,flow cytometry signal,[16],8760
same,flow cytometry signal,[17],64800
same,flow cytometry signal,rat CLDN18 (rat) [18],4580
"02-0307-h6 (antibody, V domains shown) VH: EVQLLESGGGLVQPGGSLRLSCAASGFTFSSYTMSWVRQAPGKGLEWVATIIIGGSYTYYADSVKGRFTISRDNSKNTLYLQMNSLRAEDTAVYYCTRLVKGNAMDYWGQGTLVTVSS VL: DIVMTQSPDSLAVSLGERVTMNCKSSQSLLSSGNQKNYLSWYQQKPGQPPKLLFYWASTRESGVPDRFSGSGSGTDFTLTISSVQAEDVAVYYCQNDYSYPFTFGQGTKLEIK",flow cytometry signal,[19],53100
same,flow cytometry signal,[20],3690
same,flow cytometry signal,rat CLDN18 (rat) [21],10900
same,flow cytometry signal,[22],68800
same,flow cytometry signal,rat CLDN18 (rat) [23],3600
same,flow cytometry signal,rat CLDN18 (rat) [24],30700
same,flow cytometry signal,[25],21800
same,flow cytometry signal,[26],9480
same,flow cytometry signal,[27],156000
"02-0358-h3 (antibody, V domains shown) VH: EVQLVESGGGLVQPGGSLRLSCAVSGFTFSSFGMHWVRQAPGKGLEWVAYISSGTTNIYYADSVKGRFTVSRDNAKNSLYLQMNSLRAEDTAVYYCVRSGYYGNSLDYWGQGTLVTVSS VL: DIVMTQSPDSLAVSLGERVTMNCKSSQSLFNSGNQRNYLTWYQQKPGQPPKLLIYWASTRESGVPDRFSGSGSGTDFTLTISSVQAEDVAVYYCQNVYIYPLTFGQGTKLEIK",flow cytometry signal,[28],11700
same,flow cytometry signal,[29],50400
same,flow cytometry signal,rat CLDN18 (rat) [30],3720
same,flow cytometry signal,[31],99100
same,flow cytometry signal,rat CLDN18 (rat) [32],16700
same,flow cytometry signal,rat CLDN18 (rat) [33],5070
same,flow cytometry signal,[34],55200
same,flow cytometry signal,[35],3700
same,flow cytometry signal,[36],4230
